# Reference: the nanobody polyreactivity screen of Harvey et al. (2022)
# Assay: yeast display, Sf9 membrane polyspecificity reagent, FACS + sequencing; frameworks hold sequencing errors
# Summary of the method: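 Galactose induction of a Saccharomyces cerevisiae BJ5465 synthetic nanobody display library ran 36–48 hours. The cells were then stained for 1 hour at 4 °C with 10% biotinylated, detergent-solubilized Sf9 membrane reagent, pulled down on streptavidin microbeads and FACS-sorted into low and high (top ~1%) gates on expression and reagent-binding fluorescence. Labels for polyreactivity follow the gate of origin.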
row,Sequence,polyreactivity (PSR sort gate)
1,QVQLVESGGGLVQAGGSLRLSCAASGSIFYYYSMGWYRQAPGKERELVATISSTTTTYADSVKGRFTISRDNPINTVYLNMNSMKPEDTAVYYCSFDYWGHGTQVTVSS,low polyreactivity
2,QVQLVESGGGLVQAGGSLRLSCAASGSIIDLNAMGWYRKAHGKERELVAAISSGGITYYADSVKGRFTISRDNAKNTVYLHMNSLKPEDTAVYYCAARYNHYFSLYDYWGQGTQVTVSS,high polyreactivity
3,QVQLVESGGGLVQAGGSLRLSCAASGSIIDYNAMGWYRQAPGKERELVAAIDWSGSSTYYADSVKGRFTISRDNAKNTVYLQMNSLKPEDTAVYYCNALAYYGMDYWGQGTQVTVSS,low polyreactivity
4,QVQLVESGGGLVQAGGSLRLSCAASGSIIFAYAMGWYRQAPGKERELVAAITTGVSTNYADSVKGRFTISRDNAKNTVYLQMNSLKPEDTAVYYCNADVDYGFDAGVAVQVVIHDYWGQGTQVTVSS,low polyreactivity
5,QVQLVESGGGLVQAGGSLRLSCAASGSIIFTNTMGWYRQAPGKERELVAAITSGGSTYYADSVKGRFTISRDNAKNTVYLQMNSLKPEDTAVYYCAAAISYYGKYYRLDYWGQGTQVTVSS,low polyreactivity
6,QVQLVESGGGLVQAGGSLRLSCAASGSIIFVYAMGCYRQAPGKERELVAGINSSGTSTYADSVKGRFTISRDNAKNTVYLQMNSLKPEDTAVYYCAARWFYYRWAYDYWGQGTQVTVSS,low polyreactivity
7,QVQLVESGGGLVQAGGSLRLSCAASGSIIGIYAMGWYRQAPGKEREMVAAINRGGSTYYADSVKGRFTISRDNAKNTVYLQMNSLKPEDTAVYYCSASPPYNTEFDYWGQGTQVTVSS,low polyreactivity
8,QVQLVESGGGLVQAGGSLRLSCAASGSIIGTYAMGWYRQAPGKERELVAAISSSGGRTYYADSVKGRFTISRDNAKNTVYLQMNILKTEYTAVYYCNTRPGTVFRAGGDYWGQGTQVTVSS,high polyreactivity
9,QVQLVESGGGLVQAGGSLRLSCAASGSIIGVNAMGWYRQAPGKERELVAAMSSTGGSTYYADSVKGRFSISRDNAKNTVFLQMNRLKPEDTAVYYCHTDYSKSIGDGYAGFDYWGQGTQVTVSS,low polyreactivity
10,QVQLVESGGGLVQAGGSLRLSCAASGSIIHFYAMGWYRQAPGKERELVAAITSGTSTYYADSVKGRFTISRDNAKNTVYLQMNSLKPEDTAVYYCAAEASHYYYNAYPSYGGSDYWGQGTQVNVSS,low polyreactivity
11,QVQLVESGGGLVQAGGSLRLSCAASGSIIILYAMGWYRQAPGKERELVAAISLRGGRTYYADSVKGRFTISRDNAKNTVYLQMNSLKPEVTSVYYCATPVTNGFDYWGQGTQVTVSS,high polyreactivity
12,QVQLVESGGGLVQAGGSLRLSCAASGSIIKRNAKGWYRQAPGKERELVASISSGGSTKYADSVKGRFTISRDNAKNTVYLQMNSLKPEDTAVYYCAKRSSQTRRAYDYWGQGTQVTVSS,low polyreactivity
13,QVQLVESGGGLVQAGGSLRLSCAASGSIINIYAMGWYRQAPGKERELVATITGIADSTYYADSVKGRFTISRDNAQNSVYLQMNSLKPEETAVYFCAADKYVAEYDYWGQGSQVTVSS,low polyreactivity
14,QVQLVESGGGLVQAGGSLRLSCAASGSIIPLYAMGWYRQAPGKERELVAAISRRGGSTYYADSVKGRFTISRDNAKNTVYLQMNSLKPEDTAVYYCSVDSPSPSRGPRFYYWGQGTQVTVSS,high polyreactivity
15,QVQLVESGGGLVQAGGSLRLSCAASGSIIRRYAMGWYRQAPGKERELVAAISSGGSTYYADSVKGRFTISRDNAKNTVYLEMNSLKPVDTAVYYCAAAQRVSWLFGYWGQGTQVTVSS,high polyreactivity
16,QVQLVESGGGLVQAGGSLRLSCAASGSIISAYVMGWYRQAPGKERELVAAITRSGGSTYYADSVKGRFTISRDNAKNTVYLQMNSLTPEDTAVYYCAAKSIIRPYAPRRDDMDYWGQGTQVTVSS,low polyreactivity
17,QVQLVESGGGLVQAGGSLRLSCAASGSIISGYAMGLDRQARGKERDLVAAISSGGRTKYADSVKGRFTISRDNAKNTVYLQMNSLKPEDTAVYYCNVSYLVYRWIFGWSLDYWGQGTQVTVSS,low polyreactivity
18,QVQLVESGGGLVQAGGSLRLSCAASGSIISSNAMGWYRQAPGKEREMVAAITWSGGSTYYADSVKGRFTNSRDNAKNTVYLQMNSLKPEDTAVYYCAADQWRYDGSFTGYGYWGQGTQVTVSS,low polyreactivity
19,QVQLVESGGGLVQAGGSLRLSCAASGSIITHNTMGWYRQAPGKERELVDSIDSGASTNYADSVKGGFTISRDNAKNTVYLQMNSVKPEDTAVYYCAADVAKFRYRDDYWGQGTQVTVAS,low polyreactivity
20,QVQLVESGGGLVQAGGSLRLSCAASGSIITWNAMGWYRQAPGKERELVAALDWDGGSTYYADSVKGRFTISRDNAKNTVYFQMNRLKPEDTAVYYCAATYGWYTGRYPSGHYYYWGQGTQVTVSS,low polyreactivity
21,QVQLVESGGGLVQAGGSLRLSCAASGSIIVRYAMGWYRQAPGKERELVAAISWSGGRTYYADSVKGRFTISRDNAKNTVYLQMNSLKPEDTAVYYCAADSSVRYRDTEDYWGQGTQVTVSS,low polyreactivity
22,QVQLVESGGGLVQAGGSLRLSCAASGSIIVRYAMGWYRQAPGKERELVAAISWSGGRTYYADSVKGRFTISRDNAKNTVYLQMNSLKPEDTAVYYCAKRQGGRKYVRYEYDSWGQGTQVTVSS,low polyreactivity
